Results taken from patent US20170183415A1 (published 2017).

Experiments:
[1] = target: T1, immobilized CD123 (UniProt P26951 19-305); experiment: ELISA; FIG. 30A
T1 chain: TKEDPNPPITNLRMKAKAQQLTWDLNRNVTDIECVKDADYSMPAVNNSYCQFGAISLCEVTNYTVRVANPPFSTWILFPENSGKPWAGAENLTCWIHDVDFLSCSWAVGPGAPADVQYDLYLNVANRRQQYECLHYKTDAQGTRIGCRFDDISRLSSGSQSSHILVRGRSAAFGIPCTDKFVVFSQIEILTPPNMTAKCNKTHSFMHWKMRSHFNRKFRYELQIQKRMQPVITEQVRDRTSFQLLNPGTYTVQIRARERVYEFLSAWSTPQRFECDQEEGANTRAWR

[2] = target: T1, immobilized CD123; experiment: ELISA; FIG. 30B
[3] = target: CD123_AC; experiment: ELISA; FIG. 30A
[4] = target: CD123_CA; experiment: ELISA; FIG. 30A
[5] = target: CD123_DA; experiment: ELISA; FIG. 30A
[6] = target: CD123_BD; experiment: ELISA; FIG. 30A
[7] = target: CD123_AD; experiment: ELISA; FIG. 30A
[8] = target: CD123_BC; experiment: ELISA; FIG. 30B

B1: parent mouse scFv (anti-CD123, clone 32716) (scFv)
scFv: DIVLTQSPASLAVSLGQRATISCRASESVDNYGNTFMHWYQQKPGQPPKLLIYRASNLESGIPARFSGSGSRTDFTLTINPVEADDVATYYCQQSNEDPPTFGAGTKLELKGGGGSGGGGSSGGGSQIQLVQSGPELKKPGETVKISCKASGYIFTNYGMNWVKQAPGKSFKWMGWINTYTGESTYSADFKGRFAFSLETSASTAYLHINDLKNEDTATYFCARSGGYDPMDYWGQGTSVTVSS
For B1, the Kd [1] was 2.56 nM and the Kd [2] was 1.04 nM.

B2: CD123 (receptor)
chain: T1 chain
With B2 the Kd [3] was 1.83 nM, the Kd [4] was 10.2 nM and the Kd [5] was 2.8 nM. For the same binder, the Kd [6] was 1.12 nM, the Kd [7] was 1.77 nM and the Kd [8] was 3.25 nM.
